Measured values as given in paper PMC11506642, “Cooperative Substructure and Energetics of Allosteric Regulation of the Catalytic Core of the E3 Ubiquitin Ligase Parkin by Phosphorylated Ubiquitin” (Biomolecules, 2024).

Biological target: T1, phosphorylated ubiquitin (UniProt P0CG47 1-76, phosphorylated (site not given))
T1 construct: ubiquitin, the mature cut product of its precursor; also called pUb; source: prepared as described [16]
Experiment: HDX-MS; native-state hydrogen exchange with pepsin fragmentation MS; 20 mM HEPES, 150 mM NaCl, 10 uM ZnCl2, 1 mM TCEP, 2.5% glycerol, pH 7.0, 20 °C, urea up to 4 M; ~7 uM Parkin(∆Ubl), ~12 uM pUb
Conditions: both partners purified

B1: Parkin(∆Ubl) (domain or fragment, human)
chain: SSGSPAGRSIYNSFYVYCKGPCQRVQPGKLRVQCSTCRQATLTLTQGPSCWDDVLIPNRMSGECQSPHCPGTSAEFFFKCGAHPTSDKETSVALHLIATNSRNITCITCTDVRSPVLVFQCNSRHVICLDCFHLYCVTRLNDRQFVHDPQLGYSLPCVAGCPNSLIKELHHFRILGEEQYNRYQQYGAEECVLQMGGVLCPRPGCGAGLLPEPDQRKVTCEGGNGLGCGFAFCRECKEAYHEGECSAVFEASGTTTQAYRVDERAAEQARWEAASKETIKKTTKPCPRCHVPVEKNGGCMHMKCPQPQCRLEWCWNCGCEWNRVCMGDHWFDV
notes: two extra serines that precede the Parkin residues in the construct; E3 ubiquitin ligase Parkin, human, canonical isoform (Swiss-Prot O60260-1), residues 135 through 465; RING0, RING1, IBR, REP and RING2 domains, without the Ubl domain and linker; The introduction defines the core as residues 137-461; the methods give the construct as (SS) plus 135-465; The His-SUMO fusion was cut with TEV …
B1: binds.
